What all share (experiment): cell-based or functional assay
Assay [1] deals with human VEGF-A (huVEGF165) (human) (UniProt P15692).
Assay [2] addresses murine VEGF-A (muVEGF164) (mouse) (UniProt Q00731).
Assay [3] has as its target hum-X VEGF (mouse VEGF-A with 10 residues replaced by the human residues).

Chain of UniProt P15692 (P15692 other isoform, or with tags, fused parts or gaps): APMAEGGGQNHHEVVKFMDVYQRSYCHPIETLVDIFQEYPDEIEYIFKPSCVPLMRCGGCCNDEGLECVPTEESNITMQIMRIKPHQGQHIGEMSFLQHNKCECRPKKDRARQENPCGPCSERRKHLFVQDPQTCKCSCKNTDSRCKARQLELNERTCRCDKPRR
Chain of UniProt Q00731 (Q00731 other isoform, or with tags, fused parts or gaps): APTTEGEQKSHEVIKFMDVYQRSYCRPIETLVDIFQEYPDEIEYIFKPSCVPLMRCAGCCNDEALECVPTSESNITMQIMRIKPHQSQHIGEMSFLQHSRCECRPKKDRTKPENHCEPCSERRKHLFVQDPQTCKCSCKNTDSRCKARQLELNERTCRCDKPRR

With B20-4.1 (antibody), the values for the IC50, inhibition of VEGF-stimulated bovine retinal capillary endothelial cell proliferation in assay [1], in assay [2] and in assay [3] were 0.052 µg/mL, 0.5 µg/mL and 0.076 µg/mL, respectively.
In turn, G6-31 (antibody) yielded an IC50, inhibition of VEGF-stimulated bovine retinal capillary endothelial cell proliferation in assay [3] of 0.0061 µg/mL.
Turning to Y0317 (antibody), the IC50, inhibition of VEGF-stimulated bovine retinal capillary endothelial cell proliferation turned out to be 0.00075 µg/mL in assay [1] and 0.0027 µg/mL in assay [3].

For the origin of these results see patent US20100162415A1.
